Test results as given in paper PMC5216119, “An allosteric conduit facilitates dynamic multisite substrate recognition by the SCF^Cdc4 ubiquitin ligase” (Nature Communications, 2017).
Positions count from the first letter of the chain named. Like-named read-outs stand apart in the source and are kept apart here. Square brackets hold non-standard residues; d marks the D form. Ends that are not written are not given here. Peptide text beside a SMILES is read from it. pT = C[C@@H](OP(=O)(O)O)[C@H](N)C(=O)O; pS = N[C@@H](COP(=O)(O)O)C(=O)O

Assays:
R664Q Cdc4^WD40 [1] = target: T1, R664Q Cdc4^WD40 (Saccharomyces cerevisiae, UniProt P07834, R664Q); format: binding, yeast; conditions: in vitro Trp fluorescence
T1 construct: Cdc4^WD40 (residues 367-744) was expressed from pET-Sumo (Invitrogen); His-SUMO (pET-Sumo vector) (N, cleaved yes); made in house; host or cells: Escherichia coli (host printed only for the NMR samples)
Method: We assessed the contribution of the allosteric pocket to substrate interactions by mutation of positively charged Arg655 and Arg664 residues, both of which are required for SCF-I2 inhibition. We generated Arg655Gln and Arg664Gln substitution mutants to minimize disruptive steric effects on the allosteric pocket and WD40 domain.
The binding affinities of three different peptides (Sic1^20pS69, Sic1^20pS80 and Sic1^20pS69/S80) for wild-type and mutant (Arg664Gln) Cdc4^WD40 were measured by intrinsic Trp fluorescence-binding experiments. The measurements were carried out by using an ATF 105 spectrometer (AVIV Instruments, Lakewood, NJ) equipped with an automatic titrator. The binding of the peptide fragments were monitored by using intrinsic tryptophan fluorescence with an excitation wavelength of 298 nm and an emission wavelength of 366 nm. All measurements were performed in 50 mM Tris, 150 mM NaCl, 5 mM DTT, pH 7.5 at 20 °C. The concentration of Cdc4 was 0.5 μM for all measurements. […] Association constants were calculated using the formula Ka=1/Kd. Prism 4.0 software (GraphPad Software, San Diego, CA) was used for statistical analysis (non-paired Student t test), and P values <0.05 were considered significant. Each experiment was repeated at least three times.

R655Q Cdc4^WD40 [2] = target: T2, R655Q Cdc4^WD40 (Saccharomyces cerevisiae, UniProt P07834, R655Q); assay: Intrinsic Trp fluorescence binding, R655Q Cdc4^WD40; design: species or system yeast; conditions: in vitro Trp fluorescence
T2 construct: Cdc4^WD40 (residues 367-744) was expressed from pET-Sumo (Invitrogen); His-SUMO (pET-Sumo vector) (N, cleaved yes); made in house; host or cells: Escherichia coli (host printed only for the NMR samples)

R655Q Cdc4^WD40 [3] = target: T3, R655Q Cdc4^WD40 (yeast, UniProt P07834 367-744, R655Q); assay: other fluorescence titration; intrinsic Trp fluorescence (excitation 298 nm, emission 366 nm); 0.5 μM Cdc4, ligand titrated; 50 mM Tris, 150 mM NaCl, 5 mM DTT, pH 7.5, 20 °C; 1:1 stoichiometry assumed
T3 construct: Cdc4, yeast F-box protein, WD40 domain, residues 367-744, with Arg655Gln in the allosteric pocket; also called Arg655Gln Cdc4^WD40; source: E. coli, purified as the wild type (Ni-NTA, Ulp protease, Ni-NTA, Superdex 200)
T3 sequence (looked up): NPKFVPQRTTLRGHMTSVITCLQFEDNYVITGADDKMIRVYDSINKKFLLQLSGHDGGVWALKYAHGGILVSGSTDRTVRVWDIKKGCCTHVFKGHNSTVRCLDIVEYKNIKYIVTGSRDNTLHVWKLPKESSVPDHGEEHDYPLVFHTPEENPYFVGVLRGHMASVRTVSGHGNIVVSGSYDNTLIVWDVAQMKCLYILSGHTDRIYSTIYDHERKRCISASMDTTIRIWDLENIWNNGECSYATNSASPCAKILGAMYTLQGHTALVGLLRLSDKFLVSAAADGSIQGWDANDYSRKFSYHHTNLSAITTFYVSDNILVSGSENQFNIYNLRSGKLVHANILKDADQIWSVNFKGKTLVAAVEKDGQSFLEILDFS

R664Q Cdc4^WD40 [4] = target: T4, R664Q Cdc4^WD40 (yeast, UniProt P07834 367-744, R664Q); assay: as above
T4 construct: Cdc4, yeast F-box protein, WD40 domain, residues 367-744, with Arg664Gln in the allosteric pocket; also called Arg664Gln Cdc4^WD40; mutant (Arg664Gln) Cdc4^WD40; source: E. coli, purified as the wild type (Ni-NTA, Ulp protease, Ni-NTA, Superdex 200)
T4 sequence (looked up): T3 sequence (looked up) with Q289R, R298Q

[5] = target: Cdc4^WD40 (isolated WD40 domain of the yeast F-box protein Cdc4, residues 367-744), wild type (yeast) (UniProt P07834); assay: as above
R664Q Cdc4^WD40 [6] = target: T4, R664Q Cdc4^WD40; assay: as above; conditions: both partners purified
[7] = target: T5, Cdc4^WD40 (isolated WD40 domain of the yeast F-box protein Cdc4, residues 367-744), wild type (yeast, UniProt P07834 367-744); assay: as above; conditions: both partners purified
T5 construct: Cdc4, yeast F-box protein, WD40 domain, residues 367-744; For the NMR experiments the protein was U-[15N,2H], Ile-delta1-[13CH3], Met-epsilon-[13CH3] labelled (IM-labelled); also called wt Cdc4^WD40; Cdc4 WD40 domain; source: E. coli BL21(DE3) codonPlus, purified (Ni-NTA, Ulp protease, Ni-NTA, Superdex 200)
T5 sequence (looked up): T3 sequence (looked up) with Q289R

Cdc4-Skp1 = conditions: read-out: Kd for pSic1-Cdc4-Skp1 by intrinsic tryptophan (Trp) fluorescence; cited from earlier work
[8] = target: T5, Cdc4^WD40 (isolated WD40 domain of the …); assay: ITC; 20 °C; cell 30 μM Cdc4^WD40, syringe 100 μM pSic1; 50 mM Na2HPO4 pH 7.2, 150 mM NaCl, 2 mM β-mercaptoethanol; single-site binding model; conditions: both partners purified
[9] = target: T5, Cdc4^WD40 (isolated WD40 domain of the …); assay: NMR titration; 2D 13C-1H TROSY HMQC at 10 °C on 200 μM IM-labelled Cdc4^WD40 with increasing concentrations of unlabelled ligand; 100% D2O, 50 mM Na2HPO4 pH 8.0, 150 mM NaCl, 2 mM DTT; conditions: both partners purified
Cdc4 = conditions: Sic1 phosphorylated on between 4 and 6 low-affinity CPD sites; read-out: Kd of high-affinity Sic1-Cdc4 interaction; cited from earlier work
Source text: WD40 domains, and the related Kelch β-propeller domains, mediate protein interactions in many contexts and together form the largest domain family in the human genome. WD40 domain proteins are a predominant class of substrate receptor in the ubiquitin-proteasome system, found in F-box proteins and other subunits of the cullin-RING (CRL) ubiquitin ligases. The WD40 domain of the yeast F-box protein Cdc4 (Cdc4^WD40) recognizes substrates via phosphorylated motifs termed Cdc4 phosphodegrons (CPDs). One of the best characterized Cdc4 substrates is the cyclin dependent kinase inhibitor ...

T1 sequence (P07834 367-744 R664Q): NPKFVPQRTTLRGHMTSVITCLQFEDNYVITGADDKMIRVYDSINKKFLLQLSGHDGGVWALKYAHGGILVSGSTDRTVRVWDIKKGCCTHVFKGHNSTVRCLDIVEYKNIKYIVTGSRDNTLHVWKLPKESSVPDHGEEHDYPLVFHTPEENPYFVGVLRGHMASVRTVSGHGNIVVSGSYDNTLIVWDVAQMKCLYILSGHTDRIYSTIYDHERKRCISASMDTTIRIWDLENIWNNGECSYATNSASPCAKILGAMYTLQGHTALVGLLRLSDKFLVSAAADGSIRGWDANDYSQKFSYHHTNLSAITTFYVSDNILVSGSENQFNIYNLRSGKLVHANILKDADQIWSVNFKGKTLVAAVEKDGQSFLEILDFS

Molecule: CC(=O)NCC(=O)N[C@@H](CC(C)C)C(=O)N[C@@H](CC(C)C)C(=O)N[C@H](C(=O)N1CCC[C@H]1C(=O)N1CCC[C@H]1C(=O)N[C@@H](CCC(N)=O)C(=O)N[C@@H](CO)C(=O)NCC(N)=O)[C@@H](C)OP(=O)(O)O [CycE] (Ac-GLL[pT]PPQSG-NH2; N-terminus and C-terminus assumed)
- change of affinity for Arg664Gln Cdc4^WD40 versus wild-type (R664Q Cdc4^WD40 [1]): did not significantly reduce
- change of affinity for Arg655Gln Cdc4^WD40 versus wild-type (R655Q Cdc4^WD40 [2]): did not significantly reduce

Molecule: CycE phosphopeptide (singly phosphorylated high-affinity CPD peptide derived from cyclin E)
- Kd (R655Q Cdc4^WD40 [3]): 2900 nM
- Kd (R664Q Cdc4^WD40 [4]): 1470 nM
- Kd [5]: 2210 nM

B1: pSic1 (N-terminal targeting region of Sic1, residues 1-90, phosphorylated to completion by Cln2-Cdc28-Cks1 kinase) (domain or fragment, yeast, UniProt P38634 1-90, looked up)
chain: MTPSTPPRSRGTRYLAQPSGNTSSSALMQGQKTPQKPSQNLVPVTPSTTKSFKNAPLLAPPNSNMGMTSPFNGLTSPQRSPFPKSSVKRT
modifications: phosphorylated to completion by Cln2-Cdc28-Cks1 kinase; contains 7 of the 9 Sic1 CPD sites (the residues are not listed)
notes: also called pSic1 (1-90); pSic1^1-90
- Kd (R664Q Cdc4^WD40 [6]): 4960 nM
- Kd [7]: 1300 nM
- Kd (R655Q Cdc4^WD40 [3]; both partners purified): 4160 nM
- Kd (Cdc4-Skp1): 600 nM
- Kd [8]: 800 ± 120 nM

B2: Ash1^18pT286/pT290/pS294 triphosphopeptide (unlabelled) (peptide)
peptide: AWSI[pT]PPV[pT]PPM[pS]PPTNR
notes: Ash1 transcriptional repressor, 18-residue peptide printed as AWSIpTPPVpTPPMpSPPTNR; the text says derived from Ash1 residues 283-299; the unlabelled form was used for NMR; also called triply phosphorylated Ash1 peptide; the peptide phosphorylated on all three CPDs
- binding result [9]: binds

B3: Sic1: cyclin dependent kinase inhibitor, Cdc4 substrate; here phosphorylated on 4 to 6 CPD sites (protein, UniProt P38634 1-284, looked up)
Protein SIC1: MTPSTPPRSRGTRYLAQPSGNTSSSALMQGQKTPQKPSQNLVPVTPSTTKSFKNAPLLAPPNSNMGMTSPFNGLTSPQRSPFPKSSVKRTLFQFESHDNGTVREEQEPLGRVNRILFPTQQNVDIDAAEEEEEGEVLLPPSRPTSARQLHLSLERDEFDQTHRKKIIKDVPGTPSDKVITFELAKNWNNNSPKNDARSQESEDEEDIIINPVRVGKNPFASDELVTQEIRNERKRAMLRENPDIEDVITYVNKKGEVVEKRRLTDEEKRRFKPKALFQSRDQEH
modifications: phosphorylated
notes: here phosphorylated on 4 to 6 CPD sites
- Kd (Cdc4): ~1000 nM
